Experimental data as given in patent publication US20240409645A1 (DUALYX, published 2024).

Biological target: T1, human IL-2 receptor (IL-2Rα/IL-2Rβ/γc) (human, UniProt P01589 22-272; P14784 27-551; P31785 23-369)
T1 sequence 1: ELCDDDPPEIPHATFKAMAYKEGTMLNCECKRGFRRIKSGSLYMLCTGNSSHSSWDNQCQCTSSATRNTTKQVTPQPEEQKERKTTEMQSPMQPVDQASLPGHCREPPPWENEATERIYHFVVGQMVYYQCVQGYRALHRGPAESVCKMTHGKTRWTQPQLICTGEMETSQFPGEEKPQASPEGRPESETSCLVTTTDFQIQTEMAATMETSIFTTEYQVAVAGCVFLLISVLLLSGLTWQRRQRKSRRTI
T1 sequence 2: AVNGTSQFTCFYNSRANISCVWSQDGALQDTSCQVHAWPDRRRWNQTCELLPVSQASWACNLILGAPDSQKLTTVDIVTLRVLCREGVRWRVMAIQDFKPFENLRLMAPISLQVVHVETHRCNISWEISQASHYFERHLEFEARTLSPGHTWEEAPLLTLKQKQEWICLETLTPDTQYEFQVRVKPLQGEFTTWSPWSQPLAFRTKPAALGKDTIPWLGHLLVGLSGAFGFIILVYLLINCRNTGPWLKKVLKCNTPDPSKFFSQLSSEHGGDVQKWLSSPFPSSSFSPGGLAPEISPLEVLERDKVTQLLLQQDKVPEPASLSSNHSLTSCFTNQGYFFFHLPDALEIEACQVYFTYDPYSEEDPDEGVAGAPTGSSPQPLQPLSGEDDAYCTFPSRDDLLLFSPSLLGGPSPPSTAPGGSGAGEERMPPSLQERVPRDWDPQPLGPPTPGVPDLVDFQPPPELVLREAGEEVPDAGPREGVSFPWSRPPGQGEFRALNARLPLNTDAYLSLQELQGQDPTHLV
T1 sequence 3: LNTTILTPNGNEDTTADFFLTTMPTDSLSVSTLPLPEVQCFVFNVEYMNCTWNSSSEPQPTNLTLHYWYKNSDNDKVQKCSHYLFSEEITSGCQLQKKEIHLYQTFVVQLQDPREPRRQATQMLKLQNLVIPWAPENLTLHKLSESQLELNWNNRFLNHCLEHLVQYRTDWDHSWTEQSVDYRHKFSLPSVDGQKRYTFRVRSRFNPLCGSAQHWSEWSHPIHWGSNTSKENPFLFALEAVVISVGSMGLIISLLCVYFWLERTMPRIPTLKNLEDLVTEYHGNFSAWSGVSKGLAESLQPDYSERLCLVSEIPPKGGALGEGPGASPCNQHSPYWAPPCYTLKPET
Test: cell-based or functional assay

B1: DC00087 (other)
chain 1: EVQLVESGGGLVQAGGSLRLSCAASGGSIYTYNMGWFRQAPGKEREFVAGTLWSGGDSVYADFAKGRFTLSRENAKNTLYLQMNSLKPEDTATYYCAIDPLSLTSDWRVDELSSWGKGTLVTVSSDKTHTCPPCPAPEAAGGPSVFLFPPKPKDTLMISRTPEVTCVVVDVSHEDPEVKFNWYVDGVEVHNAKTKPREEQYNSTYRVVSVLTVLHQDWLNGKEYKCKVSNKALGAPIEKTISKAKGQPREPQVYTLPPSRDELTKNQVSLTCLVKGFYPSDIAVEWESNGQPENNYKTTPPVLDSDGSFLLYSKLTVDKSRWQQGNVFSCSVMHEALHNHYTQKSLSLSPGK
chain 2: QVQLVESGGGLVQPGGSLRLSCATSGFTFRNNFMSWVRQAPGKGLEWVSTISYGGESTTYAESVKGRFTISRDNAKNTLYLQMNNLKPEDTAVYYCAKATSYDSIRSGSRGQGTQVTVSSGGGGSGGGGSGGGGSEVQLVESGGGLVQTGGSLRLSCAASGGTFSRDAMAWFRQVPGKEREFVALISWSGATTNYADSVKGRFAISRDNGKNTVYLQMNRLKPADTAIYYCAADRRPMGSRSYFEPTEYDDWGQGTQVTVSSGGGGSGGGGSGGGGSQVQLVESGGGLVQAGGSLTLSCAAPGRTFGTDVVGWFRQAPGKEREFVASISRSGDGIYYDDSVKGRFTISRNNAWNTVNLQMNSLKVEDTAVYYCAAGDGWSTYDYWGQGTQVTVSSGGGGSGGGGSGGGGSDKTHTCPPCPAPEAAGGPSVFLFPPKPKDTLMISRTPEVTCVVVDVSHEDPEVKFNWYVDGVEVHNAKTKPREEQYNSTYRVVSVLTVLHQDWLNGKEYKCKVSNKALGAPIEKTISKAKGQPREPQVYTLPPSRDELTKNQVSLTCLVKGFYPSDIAVEWESNGQPENNYKTTPPVLDSDGSFFLYSRLTVDKSRWQQGNVFSCSVMHEALHNHYTQKSLSLSPGK
With B1 the “EC50 (nM) pSTAT5, NK, human PBMCs” value was 0.00972 nM, the “Fold Max signal (% pSTAT5+) Treg/NK” value was 3 fold and the “Max signal (% pSTAT5+), NK” value was 1.4 % pSTAT5+. For the same binder, the “Max signal (% pSTAT5+), Treg” value was 4.37 % pSTAT5+.

B2: DC00092 (other)
chain 1: QLQLVESGGGLVQAGDSLRLSCAASGFNFGWHAMGWFRQAPGKEREFVATITWTGRDTYYADSVRGRFTISKDNAKDTLFLQMNSLRPDDTGVYYCAKARERATWAYSEDDCDYWGQGTQVTVSSDKTHTCPPCPAPEAAGGPSVFLFPPKPKDTLMISRTPEVTCVVVDVSHEDPEVKFNWYVDGVEVHNAKTKPREEQYNSTYRVVSVLTVLHQDWLNGKEYKCKVSNKALGAPIEKTISKAKGQPREPQVYTLPPSRDELTKNQVSLTCLVKGFYPSDIAVEWESNGQPENNYKTTPPVLDSDGSFLLYSKLTVDKSRWQQGNVFSCSVMHEALHNHYTQKSLSLSPGK
chain 2: B1 chain 2
In the case of B2, the “EC50 (nM) pSTAT5, Treg, human PBMCs” value is reported as less than 0.1 pM, the “Fold Max signal (% pSTAT5+) Treg/NK” value is reported as 6 fold and the “Max signal (% pSTAT5+), NK” value is reported as 4.82 % pSTAT5+. For the same binder, the “Max signal (% pSTAT5+), Treg” value was 26.7 % pSTAT5+.

B3: DC00090 (other)
chain 1: B2 chain 1
chain 2: EVQLVESGGGLVQTGGSLRLSCAASGGTFSRDAMAWFRQVPGKEREFVALISWSGATTNYADSVKGRFAISRDNGKNTVYLQMNRLKPADTAIYYCAADRRPMGSRSYFEPTEYDDWGQGTQVTVSSGGGGSGGGGSGGGGSQVQLVESGGGLVQPGGSLRLSCATSGFTFRNNFMSWVRQAPGKGLEWVSTISYGGESTTYAESVKGRFTISRDNAKNTLYLQMNNLKPEDTAVYYCAKATSYDSIRSGSRGQGTQVTVSSGGGGSGGGGSGGGGSQVQLVESGGGLVQAGGSLTLSCAAPGRTFGTDVVGWFRQAPGKEREFVASISRSGDGIYYDDSVKGRFTISRNNAWNTVNLQMNSLKVEDTAVYYCAAGDGWSTYDYWGQGTQVTVSSGGGGSGGGGSGGGGSDKTHTCPPCPAPEAAGGPSVFLFPPKPKDTLMISRTPEVTCVVVDVSHEDPEVKFNWYVDGVEVHNAKTKPREEQYNSTYRVVSVLTVLHQDWLNGKEYKCKVSNKALGAPIEKTISKAKGQPREPQVYTLPPSRDELTKNQVSLTCLVKGFYPSDIAVEWESNGQPENNYKTTPPVLDSDGSFFLYSRLTVDKSRWQQGNVFSCSVMHEALHNHYTQKSLSLSPGK
With B3 the “EC50 (nM) pSTAT5, NK, human PBMCs” value was 0.572 nM, the “EC50 (nM) pSTAT5, Treg, human PBMCs” value was less than 0.1 pM and the “Fold Max signal (% pSTAT5+) Treg/NK” value was 9 fold. For the same binder, the “Max signal (% pSTAT5+), NK” value was 2.67 % pSTAT5+, the “Max signal (% pSTAT5+), Treg” value was 23.5 % pSTAT5+ and the “fold EC50 NK/Treg” value was greater than 5720 fold.

B4: DC00091 (other)
chain 1: B2 chain 1
chain 2: QVQLVESGGGLVQPGGSLRLSCATSGFTFRNNFMSWVRQAPGKGLEWVSTISYGGESTTYAESVKGRFTISRDNAKNTLYLQMNNLKPEDTAVYYCAKATSYDSIRSGSRGQGTQVTVSSGGGGSGGGGSGGGGSQVQLVESGGGLVQAGGSLTLSCAAPGRTFGTDVVGWFRQAPGKEREFVASISRSGDGIYYDDSVKGRFTISRNNAWNTVNLQMNSLKVEDTAVYYCAAGDGWSTYDYWGQGTQVTVSSGGGGSGGGGSGGGGSEVQLVESGGGLVQTGGSLRLSCAASGGTFSRDAMAWFRQVPGKEREFVALISWSGATTNYADSVKGRFAISRDNGKNTVYLQMNRLKPADTAIYYCAADRRPMGSRSYFEPTEYDDWGQGTQVTVSSGGGGSGGGGSGGGGSDKTHTCPPCPAPEAAGGPSVFLFPPKPKDTLMISRTPEVTCVVVDVSHEDPEVKFNWYVDGVEVHNAKTKPREEQYNSTYRVVSVLTVLHQDWLNGKEYKCKVSNKALGAPIEKTISKAKGQPREPQVYTLPPSRDELTKNQVSLTCLVKGFYPSDIAVEWESNGQPENNYKTTPPVLDSDGSFFLYSRLTVDKSRWQQGNVFSCSVMHEALHNHYTQKSLSLSPGK
B4 was tested, and the “EC50 (nM) pSTAT5, NK, human PBMCs” value was 0.307 nM, the “EC50 (nM) pSTAT5, Treg, human PBMCs” value was less than 0.1 pM and the “Fold Max signal (% pSTAT5+) Treg/NK” value was 5 fold. The “Max signal (% pSTAT5+), NK” value was 14.5 % pSTAT5+, the “Max signal (% pSTAT5+), Treg” value was 67.7 % pSTAT5+ and the “fold EC50 NK/Treg” value was greater than 3070 fold.
